Data taken from patent publication US20070286806A1, “Methods and Compositions for Modulating a Steroid Receptor” (Mount Sinai Hospital, priority 2004, published 2007).

T1: progesterone receptor isoform B (PRB), full length (Homo sapiens (Human), UniProt P06401 1-933)
T1 construct: From expression vector pSG5 PRB; expressed in 293T or SHM cells, or translated in rabbit reticulocyte lysate with ^35S methionine for the GST pulldown; also called ^35S-labeled PRB; full length PR
T1 sequence: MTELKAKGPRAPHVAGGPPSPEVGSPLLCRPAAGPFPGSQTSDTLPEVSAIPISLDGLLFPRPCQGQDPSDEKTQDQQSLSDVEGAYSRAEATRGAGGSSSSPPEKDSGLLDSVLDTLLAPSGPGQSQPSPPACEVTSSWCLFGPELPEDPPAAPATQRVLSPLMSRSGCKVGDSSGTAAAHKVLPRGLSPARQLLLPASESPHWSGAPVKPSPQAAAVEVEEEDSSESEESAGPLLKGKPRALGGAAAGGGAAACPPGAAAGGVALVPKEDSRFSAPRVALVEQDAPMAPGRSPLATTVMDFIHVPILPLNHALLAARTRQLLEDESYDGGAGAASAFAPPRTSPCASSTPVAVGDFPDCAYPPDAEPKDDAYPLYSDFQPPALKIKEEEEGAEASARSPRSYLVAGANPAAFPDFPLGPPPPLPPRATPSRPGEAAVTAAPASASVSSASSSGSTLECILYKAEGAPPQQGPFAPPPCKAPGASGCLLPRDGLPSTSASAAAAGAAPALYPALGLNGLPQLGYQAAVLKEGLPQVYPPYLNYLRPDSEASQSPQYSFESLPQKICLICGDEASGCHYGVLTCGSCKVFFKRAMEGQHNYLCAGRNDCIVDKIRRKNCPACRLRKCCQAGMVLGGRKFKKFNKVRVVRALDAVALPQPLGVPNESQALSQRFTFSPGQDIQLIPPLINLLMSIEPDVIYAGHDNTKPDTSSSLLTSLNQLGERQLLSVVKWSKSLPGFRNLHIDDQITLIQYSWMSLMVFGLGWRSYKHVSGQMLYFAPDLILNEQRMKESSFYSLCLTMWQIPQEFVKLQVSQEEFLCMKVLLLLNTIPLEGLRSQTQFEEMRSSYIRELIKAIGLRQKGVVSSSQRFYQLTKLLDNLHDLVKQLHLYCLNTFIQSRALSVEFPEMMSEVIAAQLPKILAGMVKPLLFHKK


What was measured:
[1] = system: G5-Luc reporter; assay: Mammalian two-hybrid system with G5-Luc reporter; type: cell-based, Syrian hamster; conditions: SHM cells
Method: FIG. 2. PSF interacts with PR in vivo. (A) 293T cells were transient transfected with an expression vector for PRB and/or His-PSF for 18 hours, followed by lysis in NETN buffer with NaCl at 150 mM. Whole cell lysate (WCL) was incubated with PR antibody (C-20, Santa Cruz) or anti-His tag antibody (H-15, Santa Cruz), using protein A/G-sepharose as an absorbent. Resins were washed with NETN containing 100 mM NaCl, and bound proteins were detected by western blotting with antibodies to PR (C-20) or His-PSF (H-15). (B) Western blots of PSF (left) and PR (right) in immunoprecipitates of control mouse IgG or mouse anti-PR (AB52) or anti-PSF (B92) antibody from extracts of T47D cells. […] Luciferase activity was measured and normalized by β-galatosidase activity. […]
For immunoprecipitation of the endogenous PR and PSF, T47D cells cultured in 150 mm dishes were lysed in 800 μl NETN buffer containing 150 mM NaCl plus protease inhibitor cocktail. […] Gels were treated with Enhancer (NEN, Boston, US) dried and analyzed by autoradiography. • Cell culture and transient transfection: SHM cells and 293T cells were maintained in DMEM plus 5% FCS (Sigma) as described before (22). […] Luciferase activity was determined by using the luciferin reagent (Promega) according to manufacture's protocol. […]

[2] = biological target: T1, progesterone receptor isoform B (PRB), …; assay: summary of Example 1; in vivo and in vitro protein interaction assays

| Molecule | luciferase activity on co-transfection with VP16-PRA and VP16-PRB ([1]; G5-Luc, ligand-independent) | reduction in luciferase activity compared to pM empty vector ([1]; co-transfected with G5-Luc) [%] | binding result [2] |
| --- | --- | --- | --- |
| pM-PSF: PSF fused to C-terminus of Gal4-DBD in pM vector (protein) MKLLSSIEQACDICRLKKLKCSKEKPKCAKCLKNNWECRYSPKTKRSPLTRAHLTEVESRLERLEQLFLLIFPREDLDMILKMDSLQDIKALLTGLFVQDNVNKDAVTDRLASVETDMPLTLRQHRISATSSSEESSNKGQRQLTVSMSRDRFRSRGGGGGGFHRRGGGGGRGGLHDFRSPPPGMGLNQNRGPMGPGPGQSGPKPPIPPPPPHQQQQQPPPQQPPPQQPPPHQPPPHPQPHQQQQPPPPPQDSSKPVVAQGPGPAPGVGSAPPASSSAPPATPPTSGAPPGSGPGPTPTPPPAVTSAPPGAPPPTPPSSGVPTTPPQAGGPPPPPAAVPGPGPGPKQGPGPGGPKGGKMPGGPKPGGGPGLSTPGGHPKPPHRGGGEPRGGRQHHPPYHQQHHQGPPPGGPGGRSEEKISDSEGFKANLSLLRRPGEKTYTQRCRLFVGNLPADITEDEFKRLFAKYGEPGEVFINKGKGFGFIKLESRALAEIAKAELDDTPMRGRQLRVRFATHAAALSVRNLSPYVSNELLEEAFSQFGPIERAVVIVDDRGRSTGKGIVEFASKPAARKAFERCSEGVFLLTTTPRPVIVEPLEQLDDEDGLPEKLAQKNPMYQKERETPPRFAQHGTFEYEYSQRWKSLDEMEKQQREQVEKNMKDAKDKLESEMEDAYHEHQANLLRQDLMRRQEELRRMEELHNQEMQKRKEMQLRQEEERRRREEEMMIRQREMEEQMRRQREESYSRMGYMDPRERDMRMGGGGAMNMGDPYGSGGQKFPPLGGGGGIGYEANPGVPPATMSGSMMGSDMRTERFGQGGAGPVGGQGPRGMGPGTPAGYGRGREEYEGPNKKPRF | dramatic increase of luciferase activity | 70 | – |
| His-PSF (6xHis-tagged full length human PSF, amino acid 1-707) (other, Expressed in 293T or SHM cells (co-immunoprecipitation, reporter assays) or translated in rabbit reticulocyte lysate with ^35S methionine (GST pulldown); 1 only as 'e.g.' of wild type PSF; also called His tagged PSF; His tagged PSF1-707; not shown: N-terminal 6xHis tag of vector pcDNA3.1 6xHis) MSRDRFRSRGGGGGGFHRRGGGGGRGGLHDFRSPPPGMGLNQNRGPMGPGPGQSGPKPPIPPPPPHQQQQQPPPQQPPPQQPPPHQPPPHPQPHQQQQPPPPPQDSSKPVVAQGPGPAPGVGSAPPASSSAPPATPPTSGAPPGSGPGPTPTPPPAVTSAPPGAPPPTPPSSGVPTTPPQAGGPPPPPAAVPGPGPGPKQGPGPGGPKGGKMPGGPKPGGGPGLSTPGGHPKPPHRGGGEPRGGRQHHPPYHQQHHQGPPPGGPGGRSEEKISDSEGFKANLSLLRRPGEKTYTQRCRLFVGNLPADITEDEFKRLFAKYGEPGEVFINKGKGFGFIKLESRALAEIAKAELDDTPMRGRQLRVRFATHAAALSVRNLSPYVSNELLEEAFSQFGPIERAVVIVDDRGRSTGKGIVEFASKPAARKAFERCSEGVFLLTTTPRPVIVEPLEQLDDEDGLPEKLAQKNPMYQKERETPPRFAQHGTFEYEYSQRWKSLDEMEKQQREQVEKNMKDAKDKLESEMEDAYHEHQANLLRQDLMRRQEELRRMEELHNQEMQKRKEMQLRQEEERRRREEEMMIRQREMEEQMRRQREESYSRMGYMDPRERDMRMGGGGAMNMGDPYGSGGQKFPPLGGGGGIGYEANPGVPPATMSGSMMGSDMRTERFGQGGAGPVGGQGPRGMGPGTPAGYGRGREEYEGPNKKPRF | – | – | binds |
